B1: Speckle-type POZ protein (Homo sapiens), O43791 (parent)
chain: MSRVPSPPPPAEMSSGPVAESWCYTQIKVVKFSYMWTINNFSFCREEMGEVIKSSTFSSGANDKLKWCLRVNPKGLDEESKDYLSLYLLLVSCPKSEVRAKFKFSILNAKGEETKAMESQRAYRFVQGKDWGFKKFIRRDFLLDEANGLLPDDKLTLFCEVSVVQDSVNISGQNTMNMVKVPECRLADELGGLWENSRFTDCCLCVAGQEFQAHKAILAARSPVFSAMFEHEMEESKKNRVEINDVEPEVFKEMMCFIYTGKAPNLDKMADDLLAAADKYALERLKVMCEDALCSNLSVENAAEILILADLHSADQLKTQAVDFINYHASDVLETSGWKSMVVSHPHLVAEAYRSLASAQCPFLGPPRKRLKQS

Variants of: B1
Conditions: with PIK3C2B

| Variant | effect of a mutation on the interaction |
| --- | --- |
| F133L | with no effect |

Variants of: B1
Conditions: with pk3ca_human PIK3CA

| Variant | effect of a mutation on the interaction |
| --- | --- |
| F133L | with no effect |

Variants of: B1
Conditions: with pk3cg_human PIK3CG

| Variant | effect of a mutation on the interaction |
| --- | --- |
| F133L | with no effect |

Variants of: B1
Conditions: with p85b_human PIK3R2, O00459

| Variant | effect of a mutation on the interaction |
| --- | --- |
| F133L | with no effect |

Variants of: B1
Conditions: with dpod1_human POLD1, P28340

| Variant | effect of a mutation on the interaction |
| --- | --- |
| F133L | with no effect |

Variants of: B1
Conditions: with dpoe1_human POLE

| Variant | effect of a mutation on the interaction |
| --- | --- |
| F133L | with no effect |

Variants of: B1
Conditions: with ppard_human PPARD

| Variant | effect of a mutation on the interaction |
| --- | --- |
| F133L | with no effect |

Variants of: B1
Conditions: with prdm1_human PRDM1, O75626

| Variant | effect of a mutation on the interaction |
| --- | --- |
| F133L | with no effect |

Variants of: B1
Conditions: with prex2_human PREX2, Q70Z35

| Variant | effect of a mutation on the interaction |
| --- | --- |
| F133L | with no effect |

Variants of: B1
Conditions: with aapk2_human PRKAA2, P54646

| Variant | effect of a mutation on the interaction |
| --- | --- |
| F133L | with no effect |

Variants of: B1
Conditions: with prss8_human PRSS8, Q16651

| Variant | effect of a mutation on the interaction |
| --- | --- |
| F133L | with no effect |

Variants of: B1
Conditions: with tf65_human RELA

| Variant | effect of a mutation on the interaction |
| --- | --- |
| F133L | with no effect |

Variants of: B1
Conditions: with rictr_human RICTOR

| Variant | effect of a mutation on the interaction |
| --- | --- |
| F133L | with no effect |

Variants of: B1
Conditions: with rnf43_human RNF43, Q68DV7

| Variant | effect of a mutation on the interaction |
| --- | --- |
| F133L | with no effect |

Variants of: B1
Conditions: with ros1_human ROS1, P08922

| Variant | effect of a mutation on the interaction |
| --- | --- |
| F133L | with no effect |

Variants of: B1
Conditions: with rl11_human RPL11, P62913

| Variant | effect of a mutation on the interaction |
| --- | --- |
| F133L | with no effect |

Variants of: B1
Conditions: with rl5_human RPL5, P46777

| Variant | effect of a mutation on the interaction |
| --- | --- |
| F133L | with no effect |

Variants of: B1
Conditions: with rs15_human RPS15, P62841

| Variant | effect of a mutation on the interaction |
| --- | --- |
| F133L | with no effect |

Variants of: B1
Conditions: with rptor_human RPTOR

| Variant | effect of a mutation on the interaction |
| --- | --- |
| F133L | with no effect |

Variants of: B1
Conditions: with rxra_human RXRA

| Variant | effect of a mutation on the interaction |
| --- | --- |
| F133L | with no effect |

Variants of: B1
Conditions: with sdha_human SDHA

| Variant | effect of a mutation on the interaction |
| --- | --- |
| F133L | with no effect |

Variants of: B1
Conditions: with setbp_human SETBP1, Q9Y6X0

| Variant | effect of a mutation on the interaction |
| --- | --- |
| F133L | with no effect |

Variants of: B1
Conditions: with sf3b1_human SF3B1, O75533
Sequence of sf3b1_human SF3B1, O75533 (O75533 whole entry): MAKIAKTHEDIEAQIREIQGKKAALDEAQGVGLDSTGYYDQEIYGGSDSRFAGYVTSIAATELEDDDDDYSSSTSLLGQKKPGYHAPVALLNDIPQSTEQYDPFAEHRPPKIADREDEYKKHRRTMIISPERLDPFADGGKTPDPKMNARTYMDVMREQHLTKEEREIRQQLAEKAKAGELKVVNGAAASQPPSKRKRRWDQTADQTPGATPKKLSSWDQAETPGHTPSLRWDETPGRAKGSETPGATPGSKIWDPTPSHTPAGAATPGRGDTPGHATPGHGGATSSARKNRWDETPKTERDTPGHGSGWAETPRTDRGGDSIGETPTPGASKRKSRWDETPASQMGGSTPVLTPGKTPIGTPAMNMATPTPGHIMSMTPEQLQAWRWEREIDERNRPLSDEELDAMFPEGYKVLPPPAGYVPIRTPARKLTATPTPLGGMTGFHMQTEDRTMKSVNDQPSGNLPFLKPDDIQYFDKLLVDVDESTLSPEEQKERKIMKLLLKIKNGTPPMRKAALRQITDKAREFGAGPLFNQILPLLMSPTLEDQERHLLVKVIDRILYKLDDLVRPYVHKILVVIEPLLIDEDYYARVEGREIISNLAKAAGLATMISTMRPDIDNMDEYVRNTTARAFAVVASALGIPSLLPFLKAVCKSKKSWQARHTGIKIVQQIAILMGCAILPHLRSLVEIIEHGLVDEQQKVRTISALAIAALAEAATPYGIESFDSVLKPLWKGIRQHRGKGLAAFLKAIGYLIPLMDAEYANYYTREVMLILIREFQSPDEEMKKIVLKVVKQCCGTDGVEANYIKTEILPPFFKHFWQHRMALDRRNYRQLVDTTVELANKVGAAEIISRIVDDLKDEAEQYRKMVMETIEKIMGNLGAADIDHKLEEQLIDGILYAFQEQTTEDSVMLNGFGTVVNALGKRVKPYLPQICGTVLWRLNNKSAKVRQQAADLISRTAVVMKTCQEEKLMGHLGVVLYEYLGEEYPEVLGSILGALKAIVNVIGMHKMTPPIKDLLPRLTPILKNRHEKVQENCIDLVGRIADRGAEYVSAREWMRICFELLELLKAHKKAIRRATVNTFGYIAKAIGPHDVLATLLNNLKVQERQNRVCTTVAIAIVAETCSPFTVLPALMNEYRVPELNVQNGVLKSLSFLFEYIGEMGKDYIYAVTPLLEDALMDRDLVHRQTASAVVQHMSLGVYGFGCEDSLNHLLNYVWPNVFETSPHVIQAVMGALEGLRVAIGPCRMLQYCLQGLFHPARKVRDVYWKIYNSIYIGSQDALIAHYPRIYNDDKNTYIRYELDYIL

| Variant | effect of a mutation on the interaction |
| --- | --- |
| F133L | with no effect |

Variants of: B1
Conditions: with skp2_human SKP2, Q13309

| Variant | effect of a mutation on the interaction |
| --- | --- |
| F133L | with no effect |

Variants of: B1
Conditions: with smad1_human SMAD1, Q15797

| Variant | effect of a mutation on the interaction |
| --- | --- |
| F133L | with no effect |

Variants of: B1
Conditions: with smca4_human SMARCA4, P51532

| Variant | effect of a mutation on the interaction |
| --- | --- |
| F133L | with no effect |

Variants of: B1
Conditions: with snf5_human SMARCB1, Q12824

| Variant | effect of a mutation on the interaction |
| --- | --- |
| F133L | with no effect |

Variants of: B1
Conditions: with smo_human SMO

| Variant | effect of a mutation on the interaction |
| --- | --- |
| F133L | with no effect |

Variants of: B1
Conditions: with smuf1_human SMURF1, Q9HCE7

| Variant | effect of a mutation on the interaction |
| --- | --- |
| F133L | with no effect |

Variants of: B1
Conditions: with socs1_human SOCS1, O15524

| Variant | effect of a mutation on the interaction |
| --- | --- |
| F133L | with no effect |

Variants of: B1
Conditions: with sox10_human SOX10, P56693

| Variant | effect of a mutation on the interaction |
| --- | --- |
| F133L | with no effect |

Variants of: B1
Conditions: with sox2_human SOX2, P48431

| Variant | effect of a mutation on the interaction |
| --- | --- |
| F133L | with no effect |

Variants of: B1
Conditions: with src_human SRC

| Variant | effect of a mutation on the interaction |
| --- | --- |
| F133L | with no effect |

Variants of: B1
Conditions: with whr1_human WHR1, P49842

| Variant | effect of a mutation on the interaction |
| --- | --- |
| F133L | with no effect |

Variants of: B1
Conditions: with stk38_human STK38, Q15208

| Variant | effect of a mutation on the interaction |
| --- | --- |
| F133L | with no effect |

Variants of: B1
Conditions: with eloc_human ELOC

| Variant | effect of a mutation on the interaction |
| --- | --- |
| F133L | with no effect |

Variants of: B1
Conditions: with tfe2_human TCF3, P15923
Sequence of tfe2_human TCF3, P15923 (P15923 whole entry): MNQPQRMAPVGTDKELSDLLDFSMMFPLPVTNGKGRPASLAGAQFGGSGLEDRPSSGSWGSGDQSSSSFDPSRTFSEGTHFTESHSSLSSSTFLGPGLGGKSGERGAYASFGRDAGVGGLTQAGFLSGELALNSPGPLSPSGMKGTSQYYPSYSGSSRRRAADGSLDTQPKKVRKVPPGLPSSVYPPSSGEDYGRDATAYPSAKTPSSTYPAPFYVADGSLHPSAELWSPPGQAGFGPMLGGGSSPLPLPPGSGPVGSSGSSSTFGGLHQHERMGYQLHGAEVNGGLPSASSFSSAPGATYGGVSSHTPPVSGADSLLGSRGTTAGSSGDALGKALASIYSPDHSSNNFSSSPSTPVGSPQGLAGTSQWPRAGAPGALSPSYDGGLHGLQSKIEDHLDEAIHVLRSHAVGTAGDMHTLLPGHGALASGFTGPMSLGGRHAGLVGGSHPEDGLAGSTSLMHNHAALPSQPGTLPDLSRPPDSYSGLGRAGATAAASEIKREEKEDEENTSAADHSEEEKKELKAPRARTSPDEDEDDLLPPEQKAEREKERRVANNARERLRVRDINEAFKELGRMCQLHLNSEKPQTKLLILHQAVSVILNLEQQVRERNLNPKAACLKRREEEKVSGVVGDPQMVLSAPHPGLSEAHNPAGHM

| Variant | effect of a mutation on the interaction |
| --- | --- |
| F133L | with no effect |

Variants of: B1
Conditions: with tead1_human TEAD1, P28347

| Variant | effect of a mutation on the interaction |
| --- | --- |
| F133L | with no effect |

Variants of: B1
Conditions: with tead3_human TEAD3, Q99594

| Variant | effect of a mutation on the interaction |
| --- | --- |
| F133L | with no effect |

Variants of: B1
Conditions: with tead4_human TEAD4, Q15561

| Variant | effect of a mutation on the interaction |
| --- | --- |
| F133L | with no effect |

Variants of: B1
Conditions: with tet2_human TET2, Q6N021

| Variant | effect of a mutation on the interaction |
| --- | --- |
| F133L | with no effect |

Variants of: B1
Conditions: with TMEM106B

| Variant | effect of a mutation on the interaction |
| --- | --- |
| F133L | with no effect |

Variants of: B1
Conditions: with tnr14_human TNFRSF14, Q92956

| Variant | effect of a mutation on the interaction |
| --- | --- |
| F133L | with no effect |

Variants of: B1
Conditions: with tshr_human TSHR

| Variant | effect of a mutation on the interaction |
| --- | --- |
| F133L | with no effect |

Variants of: B1
Conditions: with vegfa_human VEGFA

| Variant | effect of a mutation on the interaction |
| --- | --- |
| F133L | with no effect |

Variants of: B1
Conditions: with vhl_human VHL

| Variant | effect of a mutation on the interaction |
| --- | --- |
| F133L | with no effect |

Variants of: B1
Conditions: with wee1_human WEE1, P30291
Sequence of wee1_human WEE1, P30291 (P30291 whole entry, looked up): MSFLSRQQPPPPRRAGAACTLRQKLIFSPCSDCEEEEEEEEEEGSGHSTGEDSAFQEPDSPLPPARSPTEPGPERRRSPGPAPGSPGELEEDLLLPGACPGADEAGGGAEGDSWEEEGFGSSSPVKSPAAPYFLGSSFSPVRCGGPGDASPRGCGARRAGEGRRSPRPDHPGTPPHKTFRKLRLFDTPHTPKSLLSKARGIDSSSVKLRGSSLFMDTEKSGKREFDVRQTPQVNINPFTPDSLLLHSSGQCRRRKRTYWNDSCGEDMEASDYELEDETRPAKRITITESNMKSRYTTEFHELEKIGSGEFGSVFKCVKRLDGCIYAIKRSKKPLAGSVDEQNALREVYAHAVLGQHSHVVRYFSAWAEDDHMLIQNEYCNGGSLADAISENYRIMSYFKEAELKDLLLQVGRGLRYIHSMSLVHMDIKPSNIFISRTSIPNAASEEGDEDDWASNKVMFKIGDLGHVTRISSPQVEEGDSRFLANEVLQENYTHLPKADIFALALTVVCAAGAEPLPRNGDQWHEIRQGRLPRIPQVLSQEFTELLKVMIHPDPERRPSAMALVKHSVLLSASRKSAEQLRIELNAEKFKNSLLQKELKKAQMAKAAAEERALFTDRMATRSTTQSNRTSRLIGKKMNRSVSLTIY

| Variant | effect of a mutation on the interaction |
| --- | --- |
| F133L | with no effect |

Variants of: B1
Conditions: with wwtr1_human WWTR1, Q9GZV5

| Variant | effect of a mutation on the interaction |
| --- | --- |
| F133L | with no effect |

Variants of: B1
Conditions: with xpo1_human XPO1, O14980

| Variant | effect of a mutation on the interaction |
| --- | --- |
| F133L | with no effect |

Variants of: B1
Conditions: with asxl2_human ASXL2, Q76L83

| Variant | effect of a mutation on the interaction |
| --- | --- |
| F133L | causing an interaction |

Variants of: B1
Conditions: with ufo_human AXL

| Variant | effect of a mutation on the interaction |
| --- | --- |
| F133L | causing an interaction |

Variants of: B1
Conditions: with birc2_human BIRC2, Q13490
Sequence of birc2_human BIRC2, Q13490 (Q13490 whole entry): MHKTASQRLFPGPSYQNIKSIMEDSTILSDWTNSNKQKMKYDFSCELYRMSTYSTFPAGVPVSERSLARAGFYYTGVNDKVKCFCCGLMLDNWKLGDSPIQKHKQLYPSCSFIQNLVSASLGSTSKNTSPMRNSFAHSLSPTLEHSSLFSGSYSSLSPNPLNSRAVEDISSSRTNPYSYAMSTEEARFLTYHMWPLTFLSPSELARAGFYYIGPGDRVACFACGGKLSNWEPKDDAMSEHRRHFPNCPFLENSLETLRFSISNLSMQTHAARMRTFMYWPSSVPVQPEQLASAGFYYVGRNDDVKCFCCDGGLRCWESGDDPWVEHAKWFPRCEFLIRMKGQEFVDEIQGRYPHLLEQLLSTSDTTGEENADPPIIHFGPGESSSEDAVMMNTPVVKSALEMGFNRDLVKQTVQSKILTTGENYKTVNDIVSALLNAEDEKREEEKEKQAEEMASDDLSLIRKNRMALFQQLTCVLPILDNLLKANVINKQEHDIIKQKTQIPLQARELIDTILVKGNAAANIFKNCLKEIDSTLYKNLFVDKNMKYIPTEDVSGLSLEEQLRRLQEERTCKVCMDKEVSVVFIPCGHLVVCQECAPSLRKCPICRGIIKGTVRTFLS

| Variant | effect of a mutation on the interaction |
| --- | --- |
| F133L | causing an interaction |

Variants of: B1
Conditions: with cul4b_human CUL4B

| Variant | effect of a mutation on the interaction |
| --- | --- |
| F133L | causing an interaction |

Variants of: B1
Conditions: with jak1_human JAK1, P23458

| Variant | effect of a mutation on the interaction |
| --- | --- |
| F133L | causing an interaction |

Variants of: B1
Conditions: with pk3cb_human PIK3CB

| Variant | effect of a mutation on the interaction |
| --- | --- |
| F133L | causing an interaction |

Variants of: B1
Conditions: with tsc2_human TSC2, P49815
Sequence of tsc2_human TSC2, P49815 (P49815 whole entry): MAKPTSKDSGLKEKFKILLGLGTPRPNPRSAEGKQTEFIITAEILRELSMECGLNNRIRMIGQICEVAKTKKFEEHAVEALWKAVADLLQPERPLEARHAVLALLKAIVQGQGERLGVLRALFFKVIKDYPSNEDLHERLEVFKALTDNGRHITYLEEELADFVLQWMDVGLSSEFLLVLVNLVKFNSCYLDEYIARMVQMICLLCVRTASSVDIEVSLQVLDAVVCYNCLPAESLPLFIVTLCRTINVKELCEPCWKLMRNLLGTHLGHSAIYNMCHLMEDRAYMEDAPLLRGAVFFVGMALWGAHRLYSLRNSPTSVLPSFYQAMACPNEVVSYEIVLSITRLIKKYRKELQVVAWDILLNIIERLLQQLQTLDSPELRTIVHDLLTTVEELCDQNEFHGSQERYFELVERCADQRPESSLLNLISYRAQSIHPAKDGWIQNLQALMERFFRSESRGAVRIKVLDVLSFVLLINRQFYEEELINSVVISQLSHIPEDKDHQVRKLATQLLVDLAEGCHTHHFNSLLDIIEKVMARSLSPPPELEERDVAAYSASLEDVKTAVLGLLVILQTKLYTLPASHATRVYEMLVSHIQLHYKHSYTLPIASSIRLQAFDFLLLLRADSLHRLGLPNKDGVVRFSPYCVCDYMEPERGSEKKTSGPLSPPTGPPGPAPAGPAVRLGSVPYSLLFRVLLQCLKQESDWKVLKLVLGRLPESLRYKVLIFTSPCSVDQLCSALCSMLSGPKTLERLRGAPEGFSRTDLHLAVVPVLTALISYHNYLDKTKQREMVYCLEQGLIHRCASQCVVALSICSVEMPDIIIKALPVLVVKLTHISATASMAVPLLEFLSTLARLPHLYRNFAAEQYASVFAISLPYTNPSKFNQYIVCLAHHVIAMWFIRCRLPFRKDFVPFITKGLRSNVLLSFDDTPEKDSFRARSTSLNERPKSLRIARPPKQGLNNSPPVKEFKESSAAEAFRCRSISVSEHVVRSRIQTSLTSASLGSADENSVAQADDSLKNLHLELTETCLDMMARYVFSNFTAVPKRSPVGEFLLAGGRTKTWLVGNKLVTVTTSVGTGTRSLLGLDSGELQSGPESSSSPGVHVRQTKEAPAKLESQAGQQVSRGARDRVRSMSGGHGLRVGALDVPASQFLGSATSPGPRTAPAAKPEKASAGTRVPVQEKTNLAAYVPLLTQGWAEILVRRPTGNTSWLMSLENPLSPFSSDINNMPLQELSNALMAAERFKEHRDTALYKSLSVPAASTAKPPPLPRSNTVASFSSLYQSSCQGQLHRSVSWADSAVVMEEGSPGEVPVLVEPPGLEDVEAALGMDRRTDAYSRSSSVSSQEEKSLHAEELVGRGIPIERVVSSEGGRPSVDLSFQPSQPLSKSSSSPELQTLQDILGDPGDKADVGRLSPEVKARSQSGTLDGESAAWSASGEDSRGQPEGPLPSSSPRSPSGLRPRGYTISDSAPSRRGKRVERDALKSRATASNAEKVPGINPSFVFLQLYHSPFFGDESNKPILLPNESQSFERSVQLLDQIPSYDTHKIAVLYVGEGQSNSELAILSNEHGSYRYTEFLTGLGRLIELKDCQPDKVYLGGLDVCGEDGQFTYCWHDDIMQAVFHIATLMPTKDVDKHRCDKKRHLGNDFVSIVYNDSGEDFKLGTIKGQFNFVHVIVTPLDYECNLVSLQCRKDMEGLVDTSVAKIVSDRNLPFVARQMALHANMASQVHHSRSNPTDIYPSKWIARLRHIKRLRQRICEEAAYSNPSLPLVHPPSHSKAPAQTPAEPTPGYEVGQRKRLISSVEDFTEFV

| Variant | effect of a mutation on the interaction |
| --- | --- |
| F133L | causing an interaction |

Variants of: B1
Conditions: with birc2_human BIRC2, Q13490
Remark: another data set of the same source

| Variant | effect of a mutation on the interaction |
| --- | --- |
| F133L | increasing interaction strength |

Variants of: B1
Conditions: with cblb_human CBLB

| Variant | effect of a mutation on the interaction |
| --- | --- |
| F133L | causing an interaction |

Variants of: B1
Conditions: with e2f5_human E2F5, Q15329

| Variant | effect of a mutation on the interaction |
| --- | --- |
| F133L | causing an interaction |

Variants of: B1
Conditions: with gata1_human GATA1, P15976

| Variant | effect of a mutation on the interaction |
| --- | --- |
| F133L | increasing interaction strength |

Variants of: B1
Conditions: with igf1r_human IGF1R

| Variant | effect of a mutation on the interaction |
| --- | --- |
| F133L | increasing interaction strength |

Variants of: B1
Conditions: with esr1_human ESR1, P03372

| Variant | effect of a mutation on the interaction |
| --- | --- |
| F133L | decreasing interaction strength |

Reference: IntAct's records for PubMed 35512704
